Test results: patent US20190071668, “COMPOSITIONS AND METHODS FOR IDENTIFICATION, ASSESSMENT, PREVENTION, AND TREATMENT OF CANCER USING SLNCR ISOFORMS” (Dana-Farber Cancer Institute, Inc., published 2019)

B1: (UUCU)5 (ssRNA)
RNA: UUCUUUCUUUCUUUCUUUCU
B2: (UC)10 (ssRNA)
RNA: UCUCUCUCUCUCUCUCUCUC
B3: (CCCU)5 (ssRNA)
RNA: CCCUCCCUCCCUCCCUCCCU

target: Androgen receptor (AR) (UniProt P10275 P10275:1-920); test: EMSA
Sequence (P10275 whole entry, one chain of several): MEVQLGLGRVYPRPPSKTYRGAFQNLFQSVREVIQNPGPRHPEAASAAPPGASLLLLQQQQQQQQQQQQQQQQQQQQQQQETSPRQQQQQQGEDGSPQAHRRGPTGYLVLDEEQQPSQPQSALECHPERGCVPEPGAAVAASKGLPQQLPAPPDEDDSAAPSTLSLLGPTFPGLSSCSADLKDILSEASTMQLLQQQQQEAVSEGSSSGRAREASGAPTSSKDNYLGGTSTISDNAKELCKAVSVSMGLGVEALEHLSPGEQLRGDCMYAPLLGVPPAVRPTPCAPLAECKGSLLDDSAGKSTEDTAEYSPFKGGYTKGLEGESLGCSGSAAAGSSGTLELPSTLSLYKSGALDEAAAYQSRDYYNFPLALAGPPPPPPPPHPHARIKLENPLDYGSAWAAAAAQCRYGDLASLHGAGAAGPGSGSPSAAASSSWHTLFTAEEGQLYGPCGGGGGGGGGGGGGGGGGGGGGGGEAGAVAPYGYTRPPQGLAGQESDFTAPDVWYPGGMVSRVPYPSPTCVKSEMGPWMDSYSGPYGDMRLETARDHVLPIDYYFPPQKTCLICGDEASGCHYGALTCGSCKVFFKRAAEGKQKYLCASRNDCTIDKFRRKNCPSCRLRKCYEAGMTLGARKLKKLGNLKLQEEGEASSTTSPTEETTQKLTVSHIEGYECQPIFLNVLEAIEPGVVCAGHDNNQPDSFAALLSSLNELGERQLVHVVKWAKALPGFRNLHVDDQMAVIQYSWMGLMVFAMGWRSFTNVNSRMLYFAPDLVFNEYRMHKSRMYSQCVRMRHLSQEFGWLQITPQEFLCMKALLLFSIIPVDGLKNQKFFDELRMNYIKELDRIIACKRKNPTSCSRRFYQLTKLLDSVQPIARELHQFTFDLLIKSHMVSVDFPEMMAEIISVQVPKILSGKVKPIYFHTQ

| Binder | binding result |
| --- | --- |
| B1 | no binding |
| B2 | no binding |
| B3 | no binding |
